Our source for the stoichiometry N values is publication PMC6030378.

This experiment deals with human IgG1 Fc fragment released from ROR-ED-Fc by 3C protease (human). The experiment in a line: SEC; Superdex 200 10/300 of the fusion protein cleaved with 3C protease; 50 mM HEPES, 500 mM NaCl, 150 mM KCl, 300 mM arginine, 5% glycerol; ROR-ED at 12.4 ml, Fc at 14.3 ml; mass estimated against standards, glycans considered.

“human IgG1 Fc fragment released from ROR-ED-Fc by 3C protease (domain or fragment)”: the stoichiometry N was 2.

What is called stoichiometry N is a count of units in the complex or per binding partner.
